Laboratory results published in the supplement of paper PMC7125110.
± gives the standard error. For some of these results: This sample holds only a part of the variants without activity.

B1: glmS ribozyme (parent)
chain: AUAAAAGCGCCAGAACUACAGAAAUGUAGUUGACGAGGAGGAGGUUUAUCGAAUUUUCGGCGGAUGCCUCCAAA

Experiments:
Conditions in all cases: with glucosamine-6-phosphate
glucosamine-6-phosphate [1] = variants of: B1; assay: kcat; higher = faster cleavage; RNA array
In short: (§1)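 A hybridised Cy3 probe tracked barcoded ribozyme variants, transcribed in situ by E. coli RNA polymerase on sequenced MiSeq chips, at 37 °C. The variants received 40 μM to 10 mM glucosamine-6-phosphate in HEPES/KCl/Mg(OAc)2 buffer. kobs came from decay fits and kcat and KM from weighted Michaelis–Menten fits.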

glucosamine-6-phosphate [2] = variants of: B1; assay: KM; higher = weaker cofactor use; RNA array
In short: as §1

glucosamine-6-phosphate [3] = variants of: B1; assay: self-cleavage kobs at 40 uM GlcN6P; higher = faster cleavage; RNA array
In short: as §1

glucosamine-6-phosphate [4] = variants of: B1; assay: self-cleavage kobs at 160 uM GlcN6P; higher = faster cleavage; RNA array
In short: as §1

glucosamine-6-phosphate [5] = variants of: B1; assay: self-cleavage kobs at 640 uM GlcN6P; higher = faster cleavage; RNA array
In short: as §1

glucosamine-6-phosphate [6] = variants of: B1; assay: self-cleavage kobs at 2500 uM GlcN6P; higher = faster cleavage; RNA array
In short: as §1

glucosamine-6-phosphate [7] = variants of: B1; assay: self-cleavage kobs at 10000 uM GlcN6P; higher = faster cleavage; RNA array
In short: as §1

Variant | kcat (glucosamine-6-phosphate [1]) [s⁻¹] | KM (glucosamine-6-phosphate [2]) [µM] | self-cleavage kobs at 40 uM GlcN6P (glucosamine-6-phosphate [3]) [s⁻¹] | self-cleavage kobs at 160 uM GlcN6P (glucosamine-6-phosphate [4]) [s⁻¹] | self-cleavage kobs at 640 uM GlcN6P (glucosamine-6-phosphate [5]) [s⁻¹] | self-cleavage kobs at 2500 uM GlcN6P (glucosamine-6-phosphate [6]) [s⁻¹] | self-cleavage kobs at 10000 uM GlcN6P (glucosamine-6-phosphate [7]) [s⁻¹]
A15U U45A | 0.0179 ± 0.0054 | 3230 ± 1300 | 0.000298 ± 4.7e-05 | 0.000772 ± 0.00017 | 0.00219 ± 0.00059 | 0.00648 ± 0.0023 | 0.0145 ± 0.0023
A15U U55A | 0.00715 ± 0.0012 | 2060 ± 490 | 0.000164 ± 1.8e-05 | 0.000472 ± 5.3e-05 | 0.00147 ± 0.00021 | 0.00588 ± 0.0011 | 0.00586 ± 0.00053
C16G A64G | 0.00475 ± 0.0023 | – | 0.000127 ± 1.8e-05 | 0.000468 ± 0.00021 | 0.00103 ± 0.00014 | 0.00156 ± 0.00036 | 0.00584 ± 0.00071
A15U G32C | 0.000139 ± 7.8e-06 | 2550 ± 370 | – | – | 3.14e-05 ± 7.2e-06 | 6.49e-05 ± 8.6e-06 | 0.000112 ± 9.6e-06
C16U U31C | 0.00735 ± 0.00094 | 1980 ± 350 | 0.000149 ± 2.1e-05 | 0.000588 ± 0.00011 | 0.00161 ± 0.00048 | 0.0036 ± 0.00062 | 0.00694 ± 0.0011
A15G U55C | 0.0256 ± 0.0046 | 1870 ± 410 | 0.000564 ± 7.9e-05 | 0.00212 ± 0.00033 | 0.0055 ± 0.0011 | 0.0125 ± 0.005 | 0.0242 ± 0.0051
C16A G38U | < 1e-05 | – | – | – | – | < 1e-05 | –
C16U C68G | 8.6e-05 ± 6.4e-06 | 307 ± 140 | – | – | 5.77e-05 ± 1e-05 | 8.4e-05 ± 1e-05 | 7.86e-05 ± 9.3e-06
C16G G32C | 0.000124 ± 1.6e-05 | 4550 ± 1400 | – | – | – | 4.67e-05 ± 9.8e-06 | 8.49e-05 ± 1e-05
G29A A53C | 0.000592 ± 0.0002 | – | – | 9.67e-05 ± 2.5e-05 | 0.000185 ± 5.1e-05 | 0.00047 ± 0.00011 | –
C16U A48U C58G C70G | 4.36e-05 ± 1.5e-05 | – | – | 4e-05 ± 1.8e-05 | 7.73e-05 ± 3e-05 | – | –
A15U C16G G59C G60A C67U | < 1e-05 | – | – | – | – | – | –
A15G G59U C67U | 5.74e-05 ± 6.3e-06 | 2230 ± 1000 | – | – | – | – | 4.69e-05 ± 1.5e-05
C16A U46G | 0.000285 ± 5.2e-05 | 1720 ± 670 | – | – | 7.33e-05 ± 1.3e-05 | 0.000212 ± 3e-05 | 0.000222 ± 3.3e-05
C16A U57A | 2.09e-05 ± 4.3e-06 | – | < 1e-05 | < 1e-05 | – | – | –
A15U U69A | 7.22e-05 ± 1.3e-05 | – | – | – | 4.48e-05 ± 1.1e-05 | 8.33e-05 ± 1e-05 | 5.39e-05 ± 1.2e-05

Variant | kcat (glucosamine-6-phosphate [1]) [s⁻¹] | KM (glucosamine-6-phosphate [2]) [µM] | self-cleavage kobs at 40 uM GlcN6P (glucosamine-6-phosphate [3]) [s⁻¹] | self-cleavage kobs at 160 uM GlcN6P (glucosamine-6-phosphate [4]) [s⁻¹] | self-cleavage kobs at 640 uM GlcN6P (glucosamine-6-phosphate [5]) [s⁻¹] | self-cleavage kobs at 2500 uM GlcN6P (glucosamine-6-phosphate [6]) [s⁻¹] | self-cleavage kobs at 10000 uM GlcN6P (glucosamine-6-phosphate [7]) [s⁻¹]
A15U U69G | 5.2e-05 ± 1.9e-05 | – | – | 4.3e-05 ± 1.3e-05 | – | 6.85e-05 ± 2.1e-05 | –
C16A C68A | 1.91e-05 ± 5.8e-06 | – | – | – | – | – | –
A15G U65G | 0.0045 ± 0.0017 | 4200 ± 2000 | 4.05e-05 ± 1e-05 | 0.000133 ± 3.7e-05 | 0.000664 ± 0.00013 | 0.00285 ± 0.0006 | 0.00279 ± 0.00062
C16A C70A | 3.47e-05 ± 1.4e-05 | – | – | – | 3.14e-05 ± 1.6e-05 | 6.59e-05 ± 2.4e-05 | –
A15U U54G U65G | 0.000547 ± 5.8e-05 | 1670 ± 300 | – | – | 0.000149 ± 2.4e-05 | 0.00039 ± 0.00013 | 0.00045 ± 0.00011
A15G U46C | 0.00378 ± 0.0014 | 1440 ± 680 | 0.000112 ± 2.9e-05 | 0.000465 ± 0.00016 | 0.000897 ± 0.00029 | – | 0.00388 ± 0.0013
A15G G41C | 0.000647 ± 4.6e-05 | 2170 ± 310 | – | 4.44e-05 ± 1.5e-05 | 0.000149 ± 2.7e-05 | 0.00032 ± 5.7e-05 | 0.000544 ± 6.2e-05
C16U U65C | 0.000756 ± 0.00022 | 2290 ± 1100 | – | 8.27e-05 ± 1.8e-05 | 0.000152 ± 2.2e-05 | 0.000332 ± 6.8e-05 | 0.000697 ± 0.00011
A15U C16U | 0.00176 ± 0.00028 | 1750 ± 440 | 4.63e-05 ± 9.6e-06 | 0.000152 ± 3.2e-05 | 0.000423 ± 9.6e-05 | 0.000885 ± 0.00016 | 0.00172 ± 0.00026
C16A A64U | < 1e-05 | – | < 1e-05 | < 1e-05 | – | – | –
C16G U54G | 0.00297 ± 0.00074 | 1080 ± 460 | 0.000177 ± 3.8e-05 | 0.000312 ± 6.7e-05 | 0.00211 ± 0.0008 | 0.00175 ± 0.0004 | 0.00291 ± 0.00046
C16G U54A | 0.00588 ± 0.0013 | 1860 ± 560 | 0.000135 ± 1.8e-05 | 0.000487 ± 0.00011 | 0.00144 ± 0.00019 | 0.0024 ± 0.00062 | 0.00601 ± 0.00089
C16A G29C | 0.00401 ± 0.0015 | 1940 ± 970 | 0.000114 ± 1.3e-05 | 0.000215 ± 4.5e-05 | 0.000949 ± 0.00011 | 0.00217 ± 0.0003 | 0.00391 ± 0.00075
A15U A52U C68A | 2.12e-05 ± 5.2e-06 | – | – | – | – | – | < 1e-05
C19A G59U | 0.000115 ± 2.9e-05 | – | – | – | – | – | 3.11e-05 ± 1.5e-05
